In patent publication US20030008820A1:

Molecular target: FGFR on smooth muscle cells (SMC) isolated from bovine aorta (bovine)
Experiment: cell-based or functional assay

Substance	molar concentration required to achieve half maximal proliferation of SMC ([3H] thymidine incorporation, no chlorate) [pM]	fold activity in promoting SMC proliferation compared to wild-type FGF2 [fold]	proliferation of chlorate-treated (HLGAG-depleted) SMC, percent of full proliferation [%]
Recombinant human wild-type FGF2 (ligand)	270		
dFGF2, tandemly-linked dimeric FGF2, as purified with N-terminal His tag and C-terminal T7 tag (ligand)	60	4.5	80
